# Laboratory results taken from patent publication US8685668B2, “Method of expressing proteins with disulfide bridges” (University of Southern California, priority 2005, dated 2014).
# What was measured:
# [1] = biological target: T1, GPIIb/IIIa (integrin αIIbβ3) (Homo sapiens, UniProt P05106+P08514); test: ADP-induced platelet aggregation inhibition assay in platelet-rich plasma; format: cell-based; conditions: inhibitor added one minute prior to ADP (1 μM)
# T1 construct: endogenous in cells; host or cells: platelets in fresh platelet-rich plasma
# Method: Different concentrations of native CN, Vicrostatin (VN), or rCN conformer were incubated with platelet-rich plasma. Addition of ADP induces platelet aggregation; VN, rCN conformer, or native CN were added one minute prior to ADP.
# The recombinant CN products were evaluated for biological activity by a platelet aggregation inhibition assay. According to this assay, CN binding to GPIIb/IIIa (integrin αIIbβ3) in an RGD dependent manner inhibits ADP induced platelet aggregation (Trikha, Rote et al. 1994). In this assay, potential inhibitors are added to fresh platelet-rich plasma, and after minute, ADP is added to a final concentration of 1 μM to induce aggregation. If inhibitor is present, functional aggregation will not occur. The IC50 is defined as the concentration at which 50% of the activity is inhibited, and is used as a measure of the potency of an inhibitor.
# [2] = Liposome encapsulation, size and stability (BCA protein assay after liposome disruption); format: physicochemical
# Method: Endotoxin-free VN containing liposomes (referred to as LVN) and endotoxin-free native CN containing liposomes (referred to as LCN) were prepared utilizing a probe sonication previously described (Fujii, Chang et al. 1997). Briefly, the lipids (disteroylphosphatidylcholine, cholesterol and polyethylene glycol derivatized lipid) were dissolved in a chloroform/methanol solution. Thin lipid films were created by pipetting aliquots of the lipid solution into round bottom glass tubes followed by solvent evaporation at 65° C. under a stream of nitrogen gas. The films were placed under vacuum for at least 24 hours to remove residual organic solvent. Liposomes formed following hydration of the lipid films with native CN or VN dissolved in 10 mM sodium phosphate, 9% sucrose, pH 7.2. The mixture was incubated at 65° C. for 5-10 minutes. Hydration was followed by probe sonication until the suspension was translucent. […]
# The concentration of liposome entrapped CN/VN was determined by disruption of the liposomes with chloroform/methanol/water (10:40:50) followed by centrifugation at 14,000×g. The supernatant was analyzed for CN/VN concentration using BCA protein assay (Smith, Krohn et al. 1985). The encapsulation efficiency was assessed by BCA protein determination following disruption of the LrCN with a solution of H2O:methanol:chloroform.
# [3] = system: MDA-MB-435 breast carcinoma cells; test: Inhibition of MDA-MB-435 cell adhesion to immobilized fibronectin (MTS readout); format: cell-based, human; conditions: 0-1000 nM, 30 min pretreatment, adhesion 1 hr at 25° C.
# Method: (§1) Pretreated cells were allowed to adhere for 1 hr at 25° C., and after non-adherent cells were washed away, the number of adherent cells for each condition was estimated using the MTS cell viability assay.
# (§2) Pretreated cells were allowed to adhere for 1 hr at 25° C., and after non-adherent cells were washed away, the number of adherent cells for each condition was estimated using the MTS cell viability assay. In the cell invasion assay, an invasion chamber consisting of cell culture inserts that fit into 24-well tissue culture plate has been utilized. The inserts contain an 8 μm-pore size polycarbonate membrane, over which a thin layer of ECMatrix™ was applied. The ECMatrix™ serves as an in vitro reconstituted basement membrane and is a solid gel of ECM proteins prepared from the Engelbreth Holm-Swarm (EHS) mouse tumor. The ECM layer occludes the membranes pores, blocking non-invasive cells to migrate through. […] At the 8 hr time point the cells that invaded through the pores into the lower chamber were measured. The numbers of invaded cells for each condition were approximated by quantitating the retrieved labeled DNA using a fluorescent plate reader. The results were calculated in % invasion, where the untreated control was considered as 100% invasion.
# [4] = system: MDA-MB-435 breast carcinoma cells; test: Inhibition of MDA-MB-435 cell adhesion to immobilized vitronectin (MTS readout); format: cell-based, human; conditions: 0-1000 nM, 30 min pretreatment, adhesion 1 hr at 25° C.
# Method: as §1, §2
molecule,measurement,setting,value
contortrostatin (protein) DAPANPCCDAATCKLTTGSQCADGLCCDQCKFMKEGTVCRRARGDDLDDYCNGISAGCPRNPFH,IC50,[1],~0.06 µM
same,protein in the encapsulation solution entrapped within the liposomes,[2],80%
same,inhibition of MDA-MB-435 cell adhesion to immobilized fibronectin (Fn),[3],inhibited adhesion
same,inhibition of MDA-MB-435 cell adhesion to immobilized vitronectin (Vn),[4],inhibited adhesion
